According to US20200157236A1 (CELLDEX THERAPEUTICS, published 2020):

B1: Ab392 (antibody, V domains shown)
VH: EVQLVQSGAEVKKPGASVKLSCKASGYTFTSYWMHWVRQAPGQGLEWIGYIKPSSGYTKYNQKFKDKATLTADKSTSTAYMELRSLRSDDTAVYYCARDYYGSSSWFAYWGQGTLVTVSS
VL: EIVMTQSPATLSTSPGERATLSCKASQNVGTNVAWYQQKPGQAPRALIYSASYRYSGVPARFSGSGSGTDFTLTISSVEPEDFAVYYCQQYNSYPYMYTFGQGTKLEIK
notes: humanized
B2: Ab399 (antibody, V domains shown)
VH: QVQLVQSGAEVAKPGTSVKLSCKASGYTFTSYWMHWVKQAPGQGLEWIGYIKPSSGYTKYNQKFKDKVTLTADKSTSTAYMELSSLRSEDTAVYYCARDYYGSSSWFAYWGQGTLVTVSS
VL: EIVMTQSQATMSTSVGERATLSCKASQNVGTNVAWYQQKPGQSPKALIYSASYRYSGVPARFSGSGSGTDFTLTISSVEPEDFAVYYCQQYNSYPYMYTFGQGTKLEIK
notes: humanized
B3: Ab401 (antibody, V domains shown)
VH: EVQLVQSGAEVKKPGTSVKLSCKASGYTFTSSAMQWVKQAPGQGLEWIGYIKPSSGYTKYNQKFKDKATLTADKSTSTAYMELSSLRSEDTAVYYCARDYYGSSSWFAYWGQGTLVTVSS
VL: EIVMTQSQATMSTSVGERATLSCKASQNVGTNVAWYQQKPGQSPKALIYSASYRYSGVPARFSGSGSGTDFTLTISSVEPEDFAVYYCQQYNSYPYMYTFGQGTKLEIK
notes: humanized
B4: Ab409 (antibody, V domains shown)
VH: EVQLVQSGAEVKKPGSSVKVSCKASGYTFSSYWMHWVRQAPGQGLEWIGYIKPSSGYTKYNQKFKDKATLTADKSTSTAYMELSSLRSEDTAVYYCARDYYGSSSWFAYWGQGTLVTVSS
VL: EIVMTQSQATMSTSVGERATLSCKASQNVGTNVAWYQQKPGQSPKALIYSASYRYSGVPARFSGSGSGTDFTLTISSVEPEDFAVYYCQQYNSYPYMYTFGQGTKLEIK
notes: humanized
B5: Ab405 (antibody, V domains shown)
VH: EVQLVQSGAEVAKPGASVKLSCKASGYTFTSYWMHWVRQAPGQGLEWIGYIKPSSGYTKYNQKFKDKATLTADKSTSTAYMELRSLRSDDTAVYYCARDYYGSSSWFAYWGQGTLVTVSS
VL: EIVMTQSQATMSTSVGERATLSCKASQNVGTNVAWYQQKPGQSPKALIYSASYRYSGVPARFSGSGSGTDFTLTISSVEPEDFAVYYCQQYNSYPYMYTFGQGTKLEIK
notes: humanized
B6: Ab404 (antibody, V domains shown)
VH: EVQLVQSGAEVKKPGASVKLSCKASGYTFTSYWMHWVRQAPGQGLEWIGYIKPSSGYTKYNQKFKDKATLTADKSTSTAYMELRSLRSDDTAVYYCARDYYGSSSWFAYWGQGTLVTVSS
VL: EIVMTQSQATMSTSVGERATLSCKASQNVGTNVAWYQQKPGQSPKALIYSASYRYSGVPARFSGSGSGTDFTLTISSVEPEDFAVYYCQQYNSYPYMYTFGQGTKLEIK
notes: humanized
B7: Ab415 (antibody, V domains shown)
VH: QVQLVQSGAEVAKPGASVKLSCKASGYTFTSYWMHWVKQAPGQGLEWIGYIKPSSGYTKYNQKFKDKATLTADKSTSTAYMELRSLRSDDTAVYYCARDYYGSSSWFAYWGQGTLVTVSS
VL: EIVMTQSQATLSTSPGERATLSCKASQNVGTNVAWYQQKPGQAPRALIYSASYRYSGVPARFSGSGSGTDFTLTISSVEPEDFAVYYCQQYNSYPYMYTFGQGTKLEIK
notes: humanized
B8: Ab397 (antibody, V domains shown)
VH: EVQLVQSGAEVKKPGSSVKVSCKASGYTFSSYWMHWVRQAPGQGLEWIGYIKPSSGYTKYNQKFKDKATLTADKSTSTAYMELSSLRSEDTAVYYCARDYYGSSSWFAYWGQGTLVTVSS
VL: EIVMTQSPATLSTSPGERATLSCKASQNVGTNVAWYQQKPGQAPRALIYSASYRYSGVPARFSGSGSGTDFTLTISSVEPEDFAVYYCQQYNSYPYMYTFGQGTKLEIK
notes: humanized
B9: Ab411 (antibody, V domains shown)
VH: QVQLVQSGAEVAKPGTSVKLSCKASGYTFTSYWMHWVKQAPGQGLEWIGYIKPSSGYTKYNQKFKDKVTLTADKSTSTAYMELSSLRSEDTAVYYCARDYYGSSSWFAYWGQGTLVTVSS
VL: EIVMTQSQATLSTSPGERATLSCKASQNVGTNVAWYQQKPGQAPRALIYSASYRYSGVPARFSGSGSGTDFTLTISSVEPEDFAVYYCQQYNSYPYMYTFGQGTKLEIK
notes: humanized
B10: Ab396 (antibody, V domains shown)
VH: EVQLVQSGAEVKKPGSSVKLSCKASGYTFTSYWMHWVRQAPGQGLEWIGYIKPSSGYTKYNQKFKDKATLTADKSTSTAYMELSSLRSEDTAVYYCARDYYGSSSWFAYWGQGTLVTVSS
VL: EIVMTQSPATLSTSPGERATLSCKASQNVGTNVAWYQQKPGQAPRALIYSASYRYSGVPARFSGSGSGTDFTLTISSVEPEDFAVYYCQQYNSYPYMYTFGQGTKLEIK
notes: humanized
B11: Ab410 (antibody, V domains shown)
VH: EVQLVQSGAEVKKPGSSVKLSCKASGYTFSSYWMHWVKQAPGQGLEWIGYIKPSSGYTKYAQKFQGRVTLTADKSTSTAYMELSSLRSEDTAVYYCARDYYGSSSWFAYWGQGTLVTVSS
VL: EIVMTQSQATMSTSVGERATLSCKASQNVGTNVAWYQQKPGQSPKALIYSASYRYSGVPARFSGSGSGTDFTLTISSVEPEDFAVYYCQQYNSYPYMYTFGQGTKLEIK
notes: humanized
B12: Ab413 (antibody, V domains shown)
VH: EVQLVQSGAEVKKPGTSVKLSCKASGYTFTSSAMQWVKQAPGQGLEWIGYIKPSSGYTKYNQKFKDKATLTADKSTSTAYMELSSLRSEDTAVYYCARDYYGSSSWFAYWGQGTLVTVSS
VL: EIVMTQSQATLSTSPGERATLSCKASQNVGTNVAWYQQKPGQAPRALIYSASYRYSGVPARFSGSGSGTDFTLTISSVEPEDFAVYYCQQYNSYPYMYTFGQGTKLEIK
notes: humanized
B13: Ab394 (antibody, V domains shown)
VH: EVQLVQSGAEVKKPGASVKLSCKASGYTFTSYWMHWVRQAPGQGLEWIGYIKPSSGYTKYAQKLQGRVTLTADKSTSTAYMELRSLRSDDTAVYYCARDYYGSSSWFAYWGQGTLVTVSS
VL: EIVMTQSPATLSTSPGERATLSCKASQNVGTNVAWYQQKPGQAPRALIYSASYRYSGVPARFSGSGSGTDFTLTISSVEPEDFAVYYCQQYNSYPYMYTFGQGTKLEIK
notes: humanized
B14: Ab407 (antibody, V domains shown)
VH: QVQLVQSGAEVAKPGSSVKLSCKASGYTFTSYWMHWVKQAPGQGLEWIGYIKPSSGYTKYNQKFKDKATLTADKSTSTAYMELSSLRSEDTAVYYCARDYYGSSSWFAYWGQGTLVTVSS
VL: EIVMTQSQATMSTSVGERATLSCKASQNVGTNVAWYQQKPGQSPKALIYSASYRYSGVPARFSGSGSGTDFTLTISSVEPEDFAVYYCQQYNSYPYMYTFGQGTKLEIK
notes: humanized
B15: Ab412 (antibody, V domains shown)
VH: EVQLVQSGPEVKKPGTSVKLSCKASGYTFTSYWMHWVRQARGQRLEWIGYIKPSSGYTKYNQKFKDRATLTADKSTSTAYMELSSLRSEDTAVYYCARDYYGSSSWFAYWGQGTLVTVSS
VL: EIVMTQSQATLSTSPGERATLSCKASQNVGTNVAWYQQKPGQAPRALIYSASYRYSGVPARFSGSGSGTDFTLTISSVEPEDFAVYYCQQYNSYPYMYTFGQGTKLEIK
notes: humanized
B16: Ab408 (antibody, V domains shown)
VH: EVQLVQSGAEVKKPGSSVKLSCKASGYTFTSYWMHWVRQAPGQGLEWIGYIKPSSGYTKYNQKFKDKATLTADKSTSTAYMELSSLRSEDTAVYYCARDYYGSSSWFAYWGQGTLVTVSS
VL: EIVMTQSQATMSTSVGERATLSCKASQNVGTNVAWYQQKPGQSPKALIYSASYRYSGVPARFSGSGSGTDFTLTISSVEPEDFAVYYCQQYNSYPYMYTFGQGTKLEIK
notes: humanized
B17: Ab416 (antibody, V domains shown)
VH: EVQLVQSGAEVKKPGASVKLSCKASGYTFTSYWMHWVRQAPGQGLEWIGYIKPSSGYTKYNQKFKDKATLTADKSTSTAYMELRSLRSDDTAVYYCARDYYGSSSWFAYWGQGTLVTVSS
VL: EIVMTQSQATLSTSPGERATLSCKASQNVGTNVAWYQQKPGQAPRALIYSASYRYSGVPARFSGSGSGTDFTLTISSVEPEDFAVYYCQQYNSYPYMYTFGQGTKLEIK
notes: humanized
B18: Ab398 (antibody, V domains shown)
VH: EVQLVQSGAEVKKPGSSVKLSCKASGYTFSSYWMHWVKQAPGQGLEWIGYIKPSSGYTKYAQKFQGRVTLTADKSTSTAYMELSSLRSEDTAVYYCARDYYGSSSWFAYWGQGTLVTVSS
VL: EIVMTQSPATLSTSPGERATLSCKASQNVGTNVAWYQQKPGQAPRALIYSASYRYSGVPARFSGSGSGTDFTLTISSVEPEDFAVYYCQQYNSYPYMYTFGQGTKLEIK
notes: humanized
B19: Ab395 (antibody, V domains shown)
VH: QVQLVQSGAEVAKPGSSVKLSCKASGYTFTSYWMHWVKQAPGQGLEWIGYIKPSSGYTKYNQKFKDKATLTADKSTSTAYMELSSLRSEDTAVYYCARDYYGSSSWFAYWGQGTLVTVSS
VL: EIVMTQSPATLSTSPGERATLSCKASQNVGTNVAWYQQKPGQAPRALIYSASYRYSGVPARFSGSGSGTDFTLTISSVEPEDFAVYYCQQYNSYPYMYTFGQGTKLEIK
notes: humanized
B20: Ab393 (antibody, V domains shown)
VH: EVQLVQSGAEVAKPGASVKLSCKASGYTFTSYWMHWVRQAPGQGLEWIGYIKPSSGYTKYNQKFKDKATLTADKSTSTAYMELRSLRSDDTAVYYCARDYYGSSSWFAYWGQGTLVTVSS
VL: EIVMTQSPATLSTSPGERATLSCKASQNVGTNVAWYQQKPGQAPRALIYSASYRYSGVPARFSGSGSGTDFTLTISSVEPEDFAVYYCQQYNSYPYMYTFGQGTKLEIK
notes: humanized
B21: Ab414 (antibody, V domains shown)
VH: EVQLVQSGAEVKKPGTSVKLSCKASGYTFTSYWMHWVRQARGQRLEWIGYIKPSSGYTKYAQKFQERVTLTADKSTSTAYMELSSLRSEDTAVYYCARDYYGSSSWFAYWGQGTLVTVSS
VL: EIVMTQSQATLSTSPGERATLSCKASQNVGTNVAWYQQKPGQAPRALIYSASYRYSGVPARFSGSGSGTDFTLTISSVEPEDFAVYYCQQYNSYPYMYTFGQGTKLEIK
notes: humanized

biological target: T1, purified ALK protein (BLitz, Table 20) (Homo sapiens (Human), UniProt Q9UM73 19-1038, limits assumed); assay: BLI (BLitz), mAb on Protein A tip, purified ALK in solution
T1 construct: also called purified ALK proteins
Experimental: Kinetic measurements of the monovalent affinity of the 96 humanized ALK antibody variants (Ab351-Ab446) were collected. Affinity ranking was performed using a BLitz® System (ForteBio, Menlo Park, Calif.). Humanized anti-ALK antibodies were immobilized at 0.5 mg/mL using Protein A tips. Once baseline stability was ensured, purified ALK proteins at 70 μg/mL were added. The resulting kinetic data were fit to a single binding site equation, from which the quoted monovalent KD values were derived.

T1 sequence (Q9UM73 19-1038 limits assumed): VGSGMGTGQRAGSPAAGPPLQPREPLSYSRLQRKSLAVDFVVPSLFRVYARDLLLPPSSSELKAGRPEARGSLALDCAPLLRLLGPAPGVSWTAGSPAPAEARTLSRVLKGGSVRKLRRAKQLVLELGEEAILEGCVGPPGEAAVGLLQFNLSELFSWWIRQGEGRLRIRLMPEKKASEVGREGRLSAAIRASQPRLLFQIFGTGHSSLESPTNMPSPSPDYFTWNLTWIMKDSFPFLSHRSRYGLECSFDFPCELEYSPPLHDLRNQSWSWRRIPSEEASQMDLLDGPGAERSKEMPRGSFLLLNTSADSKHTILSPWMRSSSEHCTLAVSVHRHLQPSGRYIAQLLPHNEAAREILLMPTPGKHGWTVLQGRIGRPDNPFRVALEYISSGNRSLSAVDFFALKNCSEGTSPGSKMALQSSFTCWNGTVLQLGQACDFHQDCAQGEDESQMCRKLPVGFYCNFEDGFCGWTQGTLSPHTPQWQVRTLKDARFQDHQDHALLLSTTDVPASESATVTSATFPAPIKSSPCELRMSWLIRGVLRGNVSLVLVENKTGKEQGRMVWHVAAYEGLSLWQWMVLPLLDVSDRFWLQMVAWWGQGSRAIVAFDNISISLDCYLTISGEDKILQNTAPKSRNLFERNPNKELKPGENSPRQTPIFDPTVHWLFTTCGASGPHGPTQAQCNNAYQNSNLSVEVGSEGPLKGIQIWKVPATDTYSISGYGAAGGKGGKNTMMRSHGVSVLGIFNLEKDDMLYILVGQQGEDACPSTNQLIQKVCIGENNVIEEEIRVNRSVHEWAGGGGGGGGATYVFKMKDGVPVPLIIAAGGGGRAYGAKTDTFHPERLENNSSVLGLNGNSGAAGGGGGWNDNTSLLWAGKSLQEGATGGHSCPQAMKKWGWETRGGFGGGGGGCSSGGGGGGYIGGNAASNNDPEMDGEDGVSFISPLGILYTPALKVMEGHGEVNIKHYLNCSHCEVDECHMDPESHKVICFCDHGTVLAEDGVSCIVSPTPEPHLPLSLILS

Binder	Kd [nM]
B1	179
B2	107
B3	1060
B4	208
B5	195
B6	132
B7	128
B8	378
B9	143
B10	176
B11	144
B12	1660
B13	157
B14	109
B15	111
B16	144
B17	180
B18	221
B19	132
B20	186
B21	142
